Measured values taken from the DeepSol protein solubility set.

Test: soluble on expression in E. coli; label from the status in PepcDB or PDB records
With “GMSDPAGKPCIICVAITGSLPTKENNPAVPITLAEQVESTHEAFEAGASIAHCHVRDDEGRPTSDPDRFAALKEGLERHCPGMIVQLSTGGRSGAGQARGAMLPLCPDMASLSVGSNNFPTRVYENPPDLVDWLAAEMLKYDIKPEIEAFDLSHILQAKRMAGDGRLAGTPYVQFVMGVRNAMPADRDVFDYYIHTVRRLFGEDAPWCAAGIGPSQIVLNEWAISSGGHARTGLEDNVRLDRDRLAPSNAALVGRAVELCEKYERPVATWRQARQILGLRMV” the “soluble on expression in E. coli” value was “soluble”. For “GMSHVSYAEPPAQGWDIHCHTVFSDGTETPRTLVEQARKLGLHGVAIADHDTTAGWDEATEASEEIGLPLLLGTEITAVDEDVSVHMLAFQYDPSNEHISSMFANTRAARLRRTKRMVERLSQDFPITWDDVLAQVKEGERTTIGRPHIADALVAAGVYETRSDAFADAVSAKSKYYIPTPSPSTHEVIAAVKGAGGVVVAAHAGDPQRNRRLLSDEQLDAMIADGLDGLEVWHRGNPPEQRERLLTIAARHDLLVTGGSDWHGKGKPNGLGENLTDDDTVREILCRGVDLIGRVGSSHAA”, the “soluble on expression in E. coli” value was “soluble”. In the case of “GMSIPANNSPVRLALIGAGRWGKNYIRTIAGLPGAALVRLASSNPDNLALVPPGCVIESDWRSVVSAPEVEAVIIATPPATHAEITLAAIASGKAVLVEKPLTLDLAEAEAVAAAAKATGVMVWVEHTQLFNPAWEALKADLTSIGPILAVRSEAGNHGPYRPGGVPMLWDWGAHDVSMVLDLMGRDPDSTSASWAARGEKDGGEAGDVTLTLAFSTVEAHIRLCNTMDKCRRLAVFGEAGTLVMDDRATDKLTLHPPQPDGNWPVGQGHALTVTDEMPLTRAVRLFAGAVRQPEPGPSPLELGLRVVRVLGACS”, the “soluble on expression in E. coli” value was “soluble”. With “GMSIVGNVENLINGVGELWNKYVKHEFILKMRDGSLPLDIFRYYLIQDGKYVEDMLRALLIASSKGPIDKVTKILNLVFSSRDKGLETHGKLYSKLDISRDVIVKTGYNLINYAYTRHLYYYANLDWNKFLVAWTPCMFGYSIVGDYVIDSPNEVYKTWASFYASTEYKKRIEAILYALDEVSITEDLLNIFINSVRFEIGFWDASLRKDPTVY” the “soluble on expression in E. coli” value was “soluble”. In the case of “GMSNEHQLLVGLLKKLKDDALILPTLPEVAMRVQEVVGRPDSSLKQVAEIIGQDAAISARIIKVANSALYSRGVPAENINSAVTRIGLTQIKSIATSVAMEQLFISTNEMVWEVMDEVWRTSIDVTAAACSLLQIYNKKHPGSGLNYDTLTLAGLVHNIGALPVLTEAEAHPEMFTTIEHLRSLVRKMQGPIGRAVLKSWDFAPEVMEVVERWADLPYLGDHVSYLDFIRAAAFYTGELRAGNELEQRLDVFVKRGLPVSPEDLGSDAFLDSYHSIKASYE”, the “soluble on expression in E. coli” value was “soluble”. In the case of “GMSNINYVILTVASVDFSYRETMARLMSSYSKDLIDNAGAKGTRFGSIGTGDHAGSLIFIQFYDDLTGYQKALEIQSKSSVFKEIMDSGKANIYLRNISTSLPTKFEQSYEHPKYIVLTRAEAAMSDKDKFLNCINDTASCFKDNGALTLRFGNLLTGSNVGNYLLGVGYPSMEAIEKTYDELLAHSSYKELMTFAKVNMRNIIKIL”, the “soluble on expression in E. coli” value was “soluble”. In the case of “GMSRDRLYTWAGLWRSPSSSWEALRLEDDQAESQLRAPDERSGLPYQLDYRLRWDADWHLREAVFHVESETGVRKLHLLADGRGHWQDGDGEALPAFDGCLDIDIWPSPFTNTFPIRRLGLADGQRAEIRALYIEAPALEPRSMRQAYTRLDASHYLYENLEGSAFKAVLLVDEQGLVIDYPGLFQRL”, the “soluble on expression in E. coli” value was “soluble”. With “GMSRTNINFNNKRTELANKIWDIFIANGYENTTLAFIINKLGISKGALYHYFSSKEECADAAIENRVAFFSNEVLKESEEGLNSIERLKKILLAGIKITSVNEQVKEINSPSNKIFHQKLMVAIIKYFAPIYADIISQGNEEGVFKVKYPLETAEIILTLSHFYLDEDLFKWKKEDMSLKLTAFKETLIKILDADEDTFDFIK” the “soluble on expression in E. coli” value was “soluble”. In the case of “GMTGAVETESMKTVRIREKIKKFLGDRPRNTAEILEHINSTMRHGTTSQQLGNVLSKDKDIVKVGYIKRSGILSGGYDICEWATRNWVAEHCPEWTEGQPIILNEEGDFTLGPLPE”, the “soluble on expression in E. coli” value was “soluble”. In the case of “GMTQLDTWLANTKPLIPVIVIDDLVHAIPMAKALVAGGVHLLEVTLRTEAGLAAISAIKKAVPEAIVGAGTVCTADDFQKAIDAGAQFIVSPGLTPELIEKAKQVKLDGQWQGVFLPGVATASEVMIAAQAGITQLKCFPASAIGGAKLLKAWSGPFPDIQFCPTGGISKDNYKEYLGLPNVICAGGSWLTESKLLIEGDWNEVTRRASEIVKLSDI”, the “soluble on expression in E. coli” value was “soluble”. With “GMTTQTATDFMEIVKGRRSIRNYDTNVKISKEEMTQILEEATLAPSSVNMQPWRFLVIDSEEGKATLAPLAKFNQVQVETSSAVIAVFGDMKAIDQLENIYDTAVEKGLMPQEVRDRQVPAIQGMYENVPASALKDSILIDSGLVSMQLMLVARAHGYDTNPIGGYEKDQIAEAFGMEKDRYVPVMLLSIGKAVDAGYPSVRLPINDIADWK” the “soluble on expression in E. coli” value was “soluble”. In the case of “GMTYELSTDREFDLIAIGRACIDLNAVEYNRPMEETMTFSKYVGGSPANIVIGSSKLGLKAGFIGKIADDQHGRFIESYMRGVGVDTSNLVVDQEGHKTGLAFTEIKSPEECSILMYRQDVADLYLSPEEVNEAYIRRSKLLLVSGTALSKSPSREAVLKAIRLAKRNDVKVVFELDYRPYSWETPEETAVYYSLVAEQSDIVIGTREEFDVLENRTEKGDNDETIRYLFKHSPELIVIKHGVEGSFAYTKAGEAYRGYAYKTKVLKTFGAGDSYASAFLYALISGKGIETALKYGSASASIVVSKHSSSDAMPSVEEIEALIEKDETITIA”, the “soluble on expression in E. coli” value was “soluble”. With “GNSIASCADEQPHIGNYRLLKTIGKGNFAKVKLARHILTGREVAIKIIDKTQLNPTSLQKLFREVRIMKILNHPNIVKLFEVIETEKTLYLIMEYASGGEVFDYLVAHGRMKEKEARSKFRQIVSAVQYCHQKRIVHRDLKAENLLLDADMNIKIADFGFSNEFTVGGKLDAFCGAPPYAAPELFQGKKYDGPEVDVWSLGVILYTLVSGSLPFDGQNLKELRERVLRGKYRIPFYMSTDCENLLKRFLVLNPIKRGTLEQIMKDRWINAGHEEDELKPFVEPELDISDQKRIDIMVGMGYSQEEIQESLSKMKYDEITATYLLLGRK” the “soluble on expression in E. coli” value was “soluble”. In the case of “GPAIAENLYFQSPNPRPGKPSAPSLALGPSPGASPSWRAAPKASDLLGARGPGGTFQGRDLRGGAHASSSSLNPMPPSQLQLPTLPLVMVAPSGARLGPLPHLQALLQDRPHFMHQLSTVDAHARTPVLQVHPLESPAMISLTPPTTATGVFSLKARPGLPPGINVASLEWVSREPALLCTFPNPSAPRKDSTLSAVPQSSYPLLANGVCKWPGCEKVFEEPEDFLKHCQADHLLDEKGRAQCLLQREMVQSLEQQLVLEKEKLSAMQAHLAGKMALTKASSVASSDKGSCCIVAAGSQGPVVPAWSGPREAPDSLFAVRRHLWGSHGNSTFPEFLHNMDYFKFHNMRPPFTYATLIRWAILEAPEKQRTLNEIYHWFTRMFAFFRNHPATWKNAIRHNLSLHKCFVRVESEKGAVWTVDELEFRKKRSQRPSRCSNPTPGP”, the “soluble on expression in E. coli” value was “soluble”. In the case of “GPFPPPGMSLPEYWGEEHVWWDGRAAFHGEVVRPACTLAMEDAWQIIDMGETPVRDLQNGFSGPERKFSLRLRNCEFNSQGGNLFSDSRIRVTFDGVRGETPDKFNLSGQAKGINLQIADVRGNIARAGKVMPAIPLTGNEEALDYTLRIVRNGKKLEAGNYFAVLGFRVDYE”, the “soluble on expression in E. coli” value was “soluble”. For “GPGGGSEAYFRVESGALGPEENFLSLDDILMSHEKLPVRTETAMPRLGAFFLERSAGAETDNAVPQGSKLELPLWLAKGLFDNKRRILSVELPKIYQEGWRTVFSADPNVVDLHKMGPHFYGFGSQLLHFDSPENADISQSLLQTFIGRFRRIMDSSQNAYNEDTSALVARLDEMERGLFQTGQKGLNDFQCWEKGQASQITASNLVQNYKKRKFTDMED”, the “soluble on expression in E. coli” value was “soluble”. For “GPGSMAMMLHTRRTVYSCICVHTHTHTHTCGCPPPTLSQKKKRSRLFMSSSSGDEYDPAEVTVHTTVASPSLSDTVVPSAAPFLRSAAGNASAATVAAAPALASLPKTAASVLPSSSSPTPPNTGNDVDGGYRLHSNIKGRIRCLTLNTAGTTLCAGSEDGQLCMWDFTVPLKSYRVQPTRVLTPFVNRISGLQPIIALTCASDDSYFVACQDGDSPVLVRASGEQLGYCAIGERGLMDVIQCKGHRAPVTCVAAHTHDAAAFFTGSQDGTVRLWNTATFKQRSVYAVKHGSGQLTDTHAVESVASLDSFHNGLGRVFASGGQDGRVQIWDSRVKYRPGGAIATVDMYAAAAPAGPDKVTEDPFMEKHVGGMMELHQKDAGASNASGSYGLAVRLGSAVKIIDLPQLSHSDGTTAPKAVLQERLPGCPTCSTRALCRLGAVVGLQQ”, the “soluble on expression in E. coli” value was “soluble”. For “GPGSMDCWNTRRDSKEFQHEAVEMDSLQANCGAPNEQAFHDTLVSAAYQLRARQRDTNVSISKAEMEGLVVLTRELENFKQMMKRSEFTVEGTWRIVEDGGMVERFGQQLYAELLTRNPRLRVHFHGVDIEEQSKSLLRMVGTAVHFYQKPQLTVDMFTKAGARHRGYGVNAEVFVEMRNAFMRVFSEFVGTDVFEAVEEEWRKFWKYVLDLLVHGSESAEGERYGKMYEEKMLKTIQADFKLIMERQNKCDLRGQFVSVMYSKAIEMHEELSKFEALKDLRASARVLQAYIDIINNIHDKKLLDEYMRELGGRHTAYNVTVENLQAFTEPFLFTCRHFFEEEWNIAAESRFLWLFEYMIDGISAGMVSDINSIVNLRAPSNSVTFGLIFTDIEASTRLWSKDSKSMSLAVKSHHAMIRRLIADYGAYEVKTVGDSFIIATKDVLVAVKLSLAIQLELMRMAPIAPGFAMVDSTEGHGDPQAWDDRTLRVRIGVEHCTDATATYDTIHRRYDYYGASVNRCARIEAAACGGQILLCRESFEYLKSMPEFHNDPCPHFLRHVEIATPPPKVDSRGLDHFVVVSDVGLASFKGIAEPVHLLSLVPRCLAGRQFTEKFTKVSE”, the “soluble on expression in E. coli” value was “not soluble”. With “GPGSMDNTEETSRVTDQEERTLTETELPAPAEHVLEGDNSASEENRLHAFLIPLEDGEQFARANLQHRWYRGLTKMLWDEELERNGILIVERGESGRNNQSADEEEEEDDDGTDDCVAKMKREFRIKREQDKIVYEEDSTRTETLREEQNAISLIVTLMEEAMDRSILMNEAETMFALILDVLKPRVHYRYIYAWGVVTCCSFKPLKSEMDRLRPSDRHKPPYMRKSLPTCRVPLEPIYYLPDGGKKMRAMNELNDVRAIGWV” the “soluble on expression in E. coli” value was “not soluble”. In the case of “GPGSMEAAPAAAAPRLPQAPKRPREESDAPLQESSNGSVPANFSNEASVTTPVAGTELVVDVDQPETNAQASAVDAPRSRSRGLAAVGPGSTSPVAASRSGTDGANNCQPAAAVTTLSSSSASADARRFKQPTLAAYGLVSDTMTLKKEISDRDSHIEELNREVEGLRAEAGRRNDQINFMDGQCRQYQRKLEHFQSVMRQEMLSAAQKDRSEARRVLYQKHFELGQTATWHSNGQTVWMEGDRVRTLFLKLADLTQKREEVEALKKAAQSNVKHLARQEREREDSGAGPDLQDALMAAQMEYQLRASEHAALTNTIADVKLKQTEIEHEKKAFVKEMRRVNDEDTSEFLAIPTIGEGDRYVLMHLLGKGGFSEVWKAFDLVEGRYVACKIHHIQREWPAQTRTHYLRHAQRELDIMRALDHPHLTHLYDVFPRGDNMFISVMEYSNGMDLDTYLKRYRIFKEADARLIFLQVVDVLRYLASLDSPIIHYDLKPANILLHRDDPTILDIKITDFGLSKIIGATREGPSDNPSIELTSQGTGTYWYLPPECFETSSTPRISNKVDIWSAGVIFYQMLFGKRPFAEGESQRRIWQEKLIIQSARTLHFPDTPKVSEEAKDIIRGCLAFNERERCDVFQLSQDPYLFRTSRRSAHKAKSAAPAGVGSSNSPLMPPVTDATPAS”, the “soluble on expression in E. coli” value was “soluble”.
